Measured values taken from paper doi:10.1101/2024.07.21.604498.

Target: hERG channel with a deleted PAS domain fused to Citrine (S620T) (human) (UniProt Q12809)
Assay: FRET or BRET

In the case of “hERG PAS domain fused to CFP (from UniProt Q12809 1-135) (domain or fragment)”, the Ratio A (F436/F500) was 0.37 and the Ratio A-Ratio A0 (proportional to FRET efficiency) was 0.21.
